Measurements: US20150086557A1, “NOVEL INTEGRIN alpha9 beta1 LIGAND AND USES THEREOF” (OSAKA UNIVERSITY, priority 2012, published 2015)

What was measured:
[1] = biological target: T1, integrin α9β1 (Homo sapiens, UniProt P05556+Q13797); experiment: Direct integrin binding assay with recombinant integrin α9β1
T1 construct: A cDNA encoding the extracellular region of human integrin α9; An expression vector for the extracellular region of integrin β1; ACID coiled-coil (Velcro) peptide; FLAG; BASE coiled-coil (Velcro) peptide; made in house; host or cells: FreeStyle 293 Expression System (293-F cells)
T1 sequence (Q13797 30-981 limits assumed): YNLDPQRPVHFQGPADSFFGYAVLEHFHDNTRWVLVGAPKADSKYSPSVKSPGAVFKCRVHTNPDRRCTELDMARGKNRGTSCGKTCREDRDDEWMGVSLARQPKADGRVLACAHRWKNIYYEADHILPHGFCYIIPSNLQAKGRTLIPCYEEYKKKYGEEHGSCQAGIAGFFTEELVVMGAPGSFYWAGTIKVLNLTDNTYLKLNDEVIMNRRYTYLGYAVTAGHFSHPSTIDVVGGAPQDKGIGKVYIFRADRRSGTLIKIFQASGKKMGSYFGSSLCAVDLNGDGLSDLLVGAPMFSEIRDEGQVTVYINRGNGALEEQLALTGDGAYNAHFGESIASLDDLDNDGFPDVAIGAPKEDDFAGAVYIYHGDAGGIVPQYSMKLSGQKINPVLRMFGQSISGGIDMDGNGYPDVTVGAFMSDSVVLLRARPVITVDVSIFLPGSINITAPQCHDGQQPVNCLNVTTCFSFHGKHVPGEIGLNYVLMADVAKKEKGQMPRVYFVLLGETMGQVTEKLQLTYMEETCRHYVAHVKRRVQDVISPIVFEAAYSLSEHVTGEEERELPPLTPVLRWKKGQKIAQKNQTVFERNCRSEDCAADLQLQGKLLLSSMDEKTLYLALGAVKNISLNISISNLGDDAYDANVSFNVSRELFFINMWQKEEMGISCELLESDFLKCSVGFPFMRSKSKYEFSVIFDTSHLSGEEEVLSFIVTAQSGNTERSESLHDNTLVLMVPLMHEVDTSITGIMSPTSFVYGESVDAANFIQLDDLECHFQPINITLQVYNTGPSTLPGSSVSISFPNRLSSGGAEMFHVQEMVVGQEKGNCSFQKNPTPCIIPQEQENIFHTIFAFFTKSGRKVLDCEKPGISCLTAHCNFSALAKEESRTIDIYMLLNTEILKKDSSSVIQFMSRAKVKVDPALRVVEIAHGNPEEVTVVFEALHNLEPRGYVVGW
T1 sequence (P05556 21-728 limits assumed): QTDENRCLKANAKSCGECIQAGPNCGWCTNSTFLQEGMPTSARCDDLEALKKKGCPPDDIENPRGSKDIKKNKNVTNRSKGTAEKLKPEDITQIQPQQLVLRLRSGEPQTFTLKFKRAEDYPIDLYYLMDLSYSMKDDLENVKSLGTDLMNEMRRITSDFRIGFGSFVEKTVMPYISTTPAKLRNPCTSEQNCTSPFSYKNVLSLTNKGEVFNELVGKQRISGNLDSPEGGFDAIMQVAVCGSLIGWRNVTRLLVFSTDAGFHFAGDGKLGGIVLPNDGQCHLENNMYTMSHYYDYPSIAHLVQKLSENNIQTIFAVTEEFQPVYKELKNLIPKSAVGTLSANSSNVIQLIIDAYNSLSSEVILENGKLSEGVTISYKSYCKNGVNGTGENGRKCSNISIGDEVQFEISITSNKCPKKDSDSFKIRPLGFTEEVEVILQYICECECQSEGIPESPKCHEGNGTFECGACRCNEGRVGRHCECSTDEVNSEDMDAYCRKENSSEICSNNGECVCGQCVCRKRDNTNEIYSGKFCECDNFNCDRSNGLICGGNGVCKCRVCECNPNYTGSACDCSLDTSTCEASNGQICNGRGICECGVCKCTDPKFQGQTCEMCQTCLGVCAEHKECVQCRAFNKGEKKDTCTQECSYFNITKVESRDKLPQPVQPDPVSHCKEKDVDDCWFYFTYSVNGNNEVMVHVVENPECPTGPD
Text: A cDNA encoding the extracellular region of human integrin α9 was amplified by RT-PCR from total RNA extracted from RD cells and cloned into pBluescript KS(+). After verification of the nucleotide sequence, an error-free cDNA fragment was inserted into pcDNA-ACID-FLAG (Nishiuchi, R., Takagi, J., Hayashi, M., Ido, H., Yagi, Y., Sanzen, N., Tsuji, T., Yamada, M., and Sekiguchi, K. (2006) Matrix Biol. 25, 189-197). An expression vector for the extracellular region of integrin β1 was provided by Dr. Junichi Takagi (Takagi, J., Erickson, H. P., and Springer, T. A. (2001) Nat. Struct. Biol. 8, 412-416). The recombinant integrins were produced using the Freestyle™ 293 Expression System (Invitrogen) and purified as described in the above-mentioned publication Matrix Biol. 25, 189-197, (2006).
An integrin binding assay was performed as described in the above-mentioned publication Matrix Biol. 25, […], (2006). In some experiments, integrins were preincubated with synthetic peptides at various concentrations to evaluate the inhibitory activities of the synthetic peptides. The apparent dissociation constants were determined as described in Nishiuchi, R., Murayama, O., Fujiwara, H., Gu, J., Kawakami. T., Aimoto, S., Wada, Y., and Sekiguchi, K. (2003) J. Biochem, 134, 497-504.
To corroborate the role of integrin α9β1 as an adhesion receptor for polydom, a direct integrin binding assay was performed, using recombinant integrin α9β1. Plates were coated with full-length polydom, pol-N, pol-C, plasma fibronectin (pFN) or cellular fibronectin (cFN), and recombinant integrin α9β1 was added and allowed to bind thereto in the presence of 1 mM MnCl2 or 10 mM EDTA. BSA was used as a negative control. The bound integrin was quantified using a biotinylated anti-Velcro antibody and HRP-conjugated streptavidin.
Integrin α9β1 is known to bind to the third fibronectin type III domain of tenascin-C (TNfn3) and the osteopontin N-terminal half (OPN-Nhalf). These integrin α9β1 ligands were recombinantly expressed as GST fusion proteins and then purified. In the GST fusion proteins, the RGD cell-adhesive motifs were replaced with RAA to nullify their abilities to interact with RGD-binding integrins, such as those containing the αv subunit, Microtiter plates were coated with pol-C (10 nM), GST-TNfn3-RAA (100 nM) or GST-OPN-Nhalf-RAA (100 nM), and integrin α9β1 was added and allowed to bind thereto in the presence of 1 mM MnCl2.
To locate the integrin α9β1-binding site within polydom, a series of five N-terminal deletion mutants of polydom (pol-C, ΔEGF6, ΔPTX, ΔCCP20 and ΔCCP21; see FIG. 9) were constructed. Their binding activities for integrin α9β1 were evaluated in the presence of 1 mM MnCl2 or 10 mM EDTA using microtiter plates coated with these recombinant proteins (10 nM).
Among the 34 CCP domains within polydom, CCP21 is unique because it contains about 40 extra amino acids as compared with the other CCP domains. An assay to examine whether this extra region (hereinafter referred to as “extra segment”) within CCP21 is involved in binding to integrin α9β1 was performed, Microtiter plates were coated with a GST-CCP21 fusion protein, a D2628-S2664 deletion mutant of the GST-CCP21 fusion protein (CCP21ΔD2628-S2664), D2628-S2664 alone (see FIG. 11), pol-C or GST alone, and integrin α9β1 was added and allowed to bind thereto in the presence of 1 mM MnCl2 or 10 mM EDTA.
To further narrow down the region responsible for binding to integrin α9β1, the extra 37-amino acid segment of CCP21 was divided into smaller segments, of which GST fusion proteins were produced. Microtiter plates were coated with eight kinds of segments including CCP21, pol-C and GST alone, and integrin α9β1 was added and allowed to bind thereto in the presence of 1 mM MnCl2 or 10 mM EDTA.
To identify the residues involved in binding to Integrin α9β1, alanine scanning mutants and N-terminal or C-terminal deletion mutants of D2634-L2645 were produced as GST fusion proteins. […]

[2] = test system: cardiac stem cells; experiment: Colony forming ability of GFP label-retaining cells (cardiac stem cells); assay type: cell-based, mouse; settings: 100 nM coating, 1×10^4 cells/well, 2 weeks, FIG. 26
Text: Tissue stem cells are known to generally have a very prolonged, cell cycle and thus allow labeling compounds incorporated into DNA and the cell interior to remain stable for a long period of time without decay along with cell division, This nature can be advantageously used to identify and separate tissue stem cells by short-term labeling or cells with a nucleotide analog such as bromodeoxyuridine (BrdU) or a fusion protein of green fluorescent protein (hereinafter referred to as “GFP”) and a nucleoprotein, histone, followed by selection of cells retaining the label for a long period of time (label-retaining cells). In this experiment, with the use of a tetracycline-inducible expression system in combination with the ROSA26 promoter, a fusion protein of GFP and histone H2B (H2B-GFP) was expressed in the heart of a mouse for 2 weeks starting 1 week before birth, and 6 weeks later, cardiac stem cells were separated as GFP label-retaining cells from the heart.
To explore whether cardiac stem cells proliferate on a polydom-coated plate, colony formation was measured, as an indicator of proliferation. A Falcon 6-well plate was coated with 800 μl/well of 100 nM polydom or fibronectin at 4° C. overnight. GFP label-retaining cells were collected by FACSAria and suspended in IMDM containing 10% fetal calf serum. […] After drying, the number of colonies was counted under a microscope.

- binding of recombinant integrin α9β1 to coated protein ([1]; 1 mM MnCl2, FIG. 7): bound
- binding of recombinant integrin α9β1 in the presence of EDTA ([1]; 10 mM EDTA, FIG. 7): completely abrogated
Substance: polydom: recombinant mouse SVEP1 (SEQ ID NO: 2), ECM protein, ligand for integrin α9β1
- colony forming activity (colony count relative to the number of cells plated) [2]: about 0.8%
